Laboratory results reported in US20170190753A1 (LABORATOIRE FRANCAIS DU FRACTIONNEMENT ET DES …, published 2017).
Values belong to the binder of their own block, whether it stands above or below them.

Target: C3 convertase complex (UniProt P01024 23-1663; P00751 260-764)
Assay: cell-based or functional assay
Wherever C3 convertase activity % of the control is given: test concentration or dose not given here.

C3 convertase complex, sequence (P01024 23-1663, chain 1 of 2): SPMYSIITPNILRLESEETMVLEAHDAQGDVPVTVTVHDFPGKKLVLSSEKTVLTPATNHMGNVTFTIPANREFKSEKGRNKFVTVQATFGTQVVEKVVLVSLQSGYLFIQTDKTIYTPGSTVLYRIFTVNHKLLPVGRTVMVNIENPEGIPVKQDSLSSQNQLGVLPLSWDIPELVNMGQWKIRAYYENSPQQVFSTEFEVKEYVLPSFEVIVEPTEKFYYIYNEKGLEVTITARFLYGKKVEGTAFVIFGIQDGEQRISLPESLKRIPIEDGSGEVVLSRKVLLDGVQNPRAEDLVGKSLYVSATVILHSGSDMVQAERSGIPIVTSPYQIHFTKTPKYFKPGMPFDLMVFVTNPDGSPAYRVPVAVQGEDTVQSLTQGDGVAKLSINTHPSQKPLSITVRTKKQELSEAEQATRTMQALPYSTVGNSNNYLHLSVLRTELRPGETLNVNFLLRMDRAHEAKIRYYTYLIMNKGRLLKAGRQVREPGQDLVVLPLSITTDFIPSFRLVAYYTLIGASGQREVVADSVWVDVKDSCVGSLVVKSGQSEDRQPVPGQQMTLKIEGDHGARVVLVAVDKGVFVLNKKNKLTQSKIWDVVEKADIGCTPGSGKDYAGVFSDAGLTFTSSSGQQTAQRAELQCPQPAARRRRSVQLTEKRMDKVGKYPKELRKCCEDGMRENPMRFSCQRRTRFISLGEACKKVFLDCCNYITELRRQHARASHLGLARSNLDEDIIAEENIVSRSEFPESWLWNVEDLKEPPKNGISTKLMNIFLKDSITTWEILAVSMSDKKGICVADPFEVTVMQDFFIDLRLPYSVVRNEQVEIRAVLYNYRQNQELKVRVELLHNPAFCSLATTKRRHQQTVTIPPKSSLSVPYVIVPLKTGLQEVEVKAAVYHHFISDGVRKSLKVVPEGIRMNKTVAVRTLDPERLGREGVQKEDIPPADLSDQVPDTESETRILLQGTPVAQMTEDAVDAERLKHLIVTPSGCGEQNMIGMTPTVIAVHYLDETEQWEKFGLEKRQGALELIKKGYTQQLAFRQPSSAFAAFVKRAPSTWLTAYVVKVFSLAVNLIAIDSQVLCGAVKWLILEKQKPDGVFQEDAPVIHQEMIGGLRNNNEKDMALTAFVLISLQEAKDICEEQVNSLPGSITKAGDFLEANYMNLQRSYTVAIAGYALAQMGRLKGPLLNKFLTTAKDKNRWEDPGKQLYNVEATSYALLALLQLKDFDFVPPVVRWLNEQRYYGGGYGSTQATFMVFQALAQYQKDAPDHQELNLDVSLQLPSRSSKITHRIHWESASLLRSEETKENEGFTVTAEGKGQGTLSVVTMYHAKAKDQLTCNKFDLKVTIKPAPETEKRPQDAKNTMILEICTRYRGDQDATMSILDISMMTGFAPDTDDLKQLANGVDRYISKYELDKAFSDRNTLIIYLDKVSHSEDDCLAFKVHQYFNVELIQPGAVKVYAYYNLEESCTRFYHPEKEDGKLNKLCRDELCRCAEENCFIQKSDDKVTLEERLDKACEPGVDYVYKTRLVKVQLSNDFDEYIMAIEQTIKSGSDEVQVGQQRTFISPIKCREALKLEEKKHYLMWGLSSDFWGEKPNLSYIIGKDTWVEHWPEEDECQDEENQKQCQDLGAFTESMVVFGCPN
C3 convertase complex, sequence (P00751 260-764, chain 2 of 2): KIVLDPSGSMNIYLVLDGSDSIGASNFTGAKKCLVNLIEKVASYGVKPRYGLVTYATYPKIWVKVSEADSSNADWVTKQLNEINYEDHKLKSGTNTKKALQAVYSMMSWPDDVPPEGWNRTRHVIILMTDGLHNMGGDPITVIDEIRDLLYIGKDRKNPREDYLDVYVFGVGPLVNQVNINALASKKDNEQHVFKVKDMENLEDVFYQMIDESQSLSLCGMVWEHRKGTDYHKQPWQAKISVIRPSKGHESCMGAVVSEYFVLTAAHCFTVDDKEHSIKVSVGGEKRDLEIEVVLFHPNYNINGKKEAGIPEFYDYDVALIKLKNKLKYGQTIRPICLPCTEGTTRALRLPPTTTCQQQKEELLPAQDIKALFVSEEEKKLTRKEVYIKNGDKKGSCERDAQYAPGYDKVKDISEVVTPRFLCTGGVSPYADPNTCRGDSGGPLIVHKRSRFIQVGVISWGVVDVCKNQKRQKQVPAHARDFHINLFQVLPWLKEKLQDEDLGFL

C3 convertase activity % of the control: 58 % of the control
C3 convertase activity IC50: 0.612 µg/mL
B1: pCEP4-1NT10-11CT20 (other)
chain: EDCNELPPRRNTEILTGSWSDQTYPEGTQAIYKCRPGYRSLGNVIMVCRKGEWVALNPLRKCQKRPCGHPGDTPFGTFTLTGGNVFEYGVKAVYTCNEGYQLLGEINYRECDTDGWTNDIPICEVVKCLPVTAPENGKIVSSAMEPDREYHFGQAVRFVCNSGYKIEGDEEMHCSDDGFWSKEKPKCVEISCKSPDVINGSPISQKIIYKENERFQYKCNMGYEYSERGDAVCTESGWRPLPSCEEKSCDNPYIPNGDYSPLRIKHRTGDEITYQCRNGFYPATRGNTAKCTSTGWIPAPRCTLKPCDYPDIKHGGLYHENMRRPYFPVAVGKYYSYYCDEHFETPSGSYWDHIHCTQDGWSPAVPCLRKCYFPYLENGYNQNHGRKFVQGKSIDVACHPGYALPKAQTTVTCMENGWSPTPRCIRVKTCSKSSIDIENGFISESQYTYALKEKAKYQCKLGYVTADGETSGSITCGKDGWSAQPTCIKSCDIPVFMNARTKNDFTWFKLNDTLDYECHDGYESNTGSTTGSIVCGYNGWSDLPICYERECELPKIDVHLVPDRKKDQYKVGEVLKFSCKPGFTIVGPNSVQCYHFGLSPDLPICKEQVQSGASGCGPPPELLNGNVKEKTKEEYGHSEVVEYYCNPRFLMKGPNKIQCVDGEWTTLPVCIVEESTCGDIPELEHGWAQLSSPPYYYGDSVEFNCSESFTMIGHRSITCIHGVWTQLPQCVAIDKLKKCKSSNLIILEEHLKNKKEFDHNSNIRYRCRGKEGWIHTVCINGRWDPEVNCSMAQIQLCPPPPQIPNSHNMTTTLNYRDGEKVSVLCQENYLIQEGEEITCKDGRWQSIPLCVEKIPCSQPPQIEHGTINSSRSSQESYAHGTKLSYTCEGGFRISEENETTCYMGKWSSPPQCEGLPCKSPPEISHGVVAHMSDSYQYGEEVTYKCFEGFGIDGPAIAKCLGEKWSHPPSCIKTDCLSLPSFENAIPMGEKKDVYKAGEQVTYTCATYYKMDGASNVTCINSRWTGRPTCRDTSCVNPPTVQNAYIVSRQMSKYPSGERVRYQCRSPYEMFGDEEVMCLNGNWTEPPQCKDSTGKCGPPPPIDNGDITSFPLSVYAPASSVEYQCQNLYQLEGNKRITCRNGQWSEPPKCLHPCVISREIMENYNIALRWTAKQKLYSRTGESVEFVCKRGYRLSSRSHTLRTTCWDGKLEYPTCAKRGGSGHHHHHH

C3 convertase activity % of the control: 59 % of the control
C3 convertase activity IC50: 0.602 µg/mL
B2: pCEP4-1NT7-10CT20 (other)
chain: EDCNELPPRRNTEILTGSWSDQTYPEGTQAIYKCRPGYRSLGNVIMVCRKGEWVALNPLRKCQKRPCGHPGDTPFGTFTLTGGNVFEYGVKAVYTCNEGYQLLGEINYRECDTDGWTNDIPICEVVKCLPVTAPENGKIVSSAMEPDREYHFGQAVRFVCNSGYKIEGDEEMHCSDDGFWSKEKPKCVEISCKSPDVINGSPISQKIIYKENERFQYKCNMGYEYSERGDAVCTESGWRPLPSCEEKSCDNPYIPNGDYSPLRIKHRTGDEITYQCRNGFYPATRGNTAKCTSTGWIPAPRCTLKPCDYPDIKHGGLYHENMRRPYFPVAVGKYYSYYCDEHFETPSGSYWDHIHCTQDGWSPAVPCLRKCYFPYLENGYNQNYGRKFVQGKSIDVACHPGYALPKAQTTVTCMENGWSPTPRCIRVKTGASGCELPKIDVHLVPDRKKDQYKVGEVLKFSCKPGFTIVGPNSVQCYHFGLSPDLPICKEQVQSCGPPPELLNGNVKEKTKEEYGHSEVVEYYCNPRFLMKGPNKIQCVDGEWTTLPVCIVEESTCGDIPELEHGWAQLSSPPYYYGDSVEFNCSESFTMIGHRSITCIHGVWTQLPQCVAIDKLKKCKSSNLIILEEHLKNKKEFDHNSNIRYRCRGKEGWIHTVCINGRWDPEVNCSMAQIQLCPPPPQIPNSHNMTTTLNYRDGEKVSVLCQENYLIQEGEEITCKDGRWQSIPLCVEKIPCSQPPQIEHGTINSSRSSQESYAHGTKLSYTCEGGFRISEENETTCYMGKWSSPPQCEGLPCKSPPEISHGVVAHMSDSYQYGEEVTYKCFEGFGIDGPAIAKCLGEKWSHPPSCIKTDCLSLPSFENAIPMGEKKDVYKAGEQVTYTCATYYKMDGASNVTCINSRWTGRPTCRDTSCVNPPTVQNAYIVSRQMSKYPSGERVRYQCRSPYEMFGDEEVMCLNGNWTEPPQCKDSTGKCGPPPPIDNGDITSFPLSVYAPASSVEYQCQNLYQLEGNKRITCRNGQWSEPPKCLHPCVISREIMENYNIALRWTAKQKLYSRTGESVEFVCKRGYRLSSRSHTLRTTCWDGKLEYPTCAKRGGSGHHHHHH

C3 convertase activity % of the control: 156 % of the control
C3 convertase activity IC50: 0.252 µg/mL
B3: pCEP4-1NT7-9CT20 (other)
chain: EDCNELPPRRNTEILTGSWSDQTYPEGTQAIYKCRPGYRSLGNVIMVCRKGEWVALNPLRKCQKRPCGHPGDTPFGTFTLTGGNVFEYGVKAVYTCNEGYQLLGEINYRECDTDGWTNDIPICEVVKCLPVTAPENGKIVSSAMEPDREYHFGQAVRFVCNSGYKIEGDEEMHCSDDGFWSKEKPKCVEISCKSPDVINGSPISQKIIYKENERFQYKCNMGYEYSERGDAVCTESGWRPLPSCEEKSCDNPYIPNGDYSPLRIKHRTGDEITYQCRNGFYPATRGNTAKCTSTGWIPAPRCTLKPCDYPDIKHGGLYHENMRRPYFPVAVGKYYSYYCDEHFETPSGSYWDHIHCTQDGWSPAVPCLRKCYFPYLENGYNQNYGRKFVQGKSIDVACHPGYALPKAQTTVTCMENGWSPTPRCIRVKTGASGCDIPVFMNARTKNDFTWFKLNDTLDYECHDGYESNTGSTTGSIVCGYNGWSDLPICYERECELPKIDVHLVPDRKKDQYKVGEVLKFSCKPGFTIVGPNSVQCYHFGLSPDLPICKEQVQSCGPPPELLNGNVKEKTKEEYGHSEVVEYYCNPRFLMKGPNKIQCVDGEWTTLPVCIVEESTCGDIPELEHGWAQLSSPPYYYGDSVEFNCSESFTMIGHRSITCIHGVWTQLPQCVAIDKLKKCKSSNLIILEEHLKNKKEFDHNSNIRYRCRGKEGWIHTVCINGRWDPEVNCSMAQIQLCPPPPQIPNSHNMTTTLNYRDGEKVSVLCQENYLIQEGEEITCKDGRWQSIPLCVEKIPCSQPPQIEHGTINSSRSSQESYAHGTKLSYTCEGGFRISEENETTCYMGKWSSPPQCEGLPCKSPPEISHGVVAHMSDSYQYGEEVTYKCFEGFGIDGPAIAKCLGEKWSHPPSCIKTDCLSLPSFENAIPMGEKKDVYKAGEQVTYTCATYYKMDGASNVTCINSRWTGRPTCRDTSCVNPPTVQNAYIVSRQMSKYPSGERVRYQCRSPYEMFGDEEVMCLNGNWTEPPQCKDSTGKCGPPPPIDNGDITSFPLSVYAPASSVEYQCQNLYQLEGNKRITCRNGQWSEPPKCLHPCVISREIMENYNIALRWTAKQKLYSRTGESVEFVCKRGYRLSSRSHTLRTTCWDGKLEYPTCAKRGGSGHHHHHH

C3 convertase activity % of the control: 58 % of the control
C3 convertase activity IC50: 0.206 µg/mL
B4: pCEP4-1NT4-15CT20 (other)
chain: EDCNELPPRRNTEILTGSWSDQTYPEGTQAIYKCRPGYRSLGNVIMVCRKGEWVALNPLRKCQKRPCGHPGDTPFGTFTLTGGNVFEYGVKAVYTCNEGYQLLGEINYRECDTDGWTNDIPICEVVKCLPVTAPENGKIVSSAMEPDREYHFGQAVRFVCNSGYKIEGDEEMHCSDDGFWSKEKPKCVEISCKSPDVINGSPISQKIIYKENERFQYKCNMGYEYSERGDAVCTESGWRPLPSCEEKSGASGCSQPPQIEHGTINSSRSSQESYAHGTKLSYTCEGGFRISEENETTCYMGKWSSPPQCEGLPCKSPPEISHGVVAHMSDSYQYGEEVTYKCFEGFGIDGPAIAKCLGEKWSHPPSCIKTDCLSLPSFENAIPMGEKKDVYKAGEQVTYTCATYYKMDGASNVTCINSRWTGRPTCRDTSCVNPPTVQNAYIVSRQMSKYPSGERVRYQCRSPYEMFGDEEVMCLNGNWTEPPQCKDSTGKCGPPPPIDNGDITSFPLSVYAPASSVEYQCQNLYQLEGNKRITCRNGQWSEPPKCLHPCVISREIMENYNIALRWTAKQKLYSRTGESVEFVCKRGYRLSSRSHTLRTTCWDGKLEYPTCAKRGGSGHHHHHH

C3 convertase activity % of the control: 58 % of the control
C3 convertase activity IC50: 0.628 µg/mL
B5: pCEP4-1NT8-15CT20 (other)
chain: EDCNELPPRRNTEILTGSWSDQTYPEGTQAIYKCRPGYRSLGNVIMVCRKGEWVALNPLRKCQKRPCGHPGDTPFGTFTLTGGNVFEYGVKAVYTCNEGYQLLGEINYRECDTDGWTNDIPICEVVKCLPVTAPENGKIVSSAMEPDREYHFGQAVRFVCNSGYKIEGDEEMHCSDDGFWSKEKPKCVEISCKSPDVINGSPISQKIIYKENERFQYKCNMGYEYSERGDAVCTESGWRPLPSCEEKSCDNPYIPNGDYSPLRIKHRTGDEITYQCRNGFYPATRGNTAKCTSTGWIPAPRCTLKPCDYPDIKHGGLYHENMRRPYFPVAVGKYYSYYCDEHFETPSGSYWDHIHCTQDGWSPAVPCLRKCYFPYLENGYNQNYGRKFVQGKSIDVACHPGYALPKAQTTVTCMENGWSPTPRCIRVKTCSKSSIDIENGFISESQYTYALKEKAKYQCKLGYVTADGETSGSITCGKDGWSAQPTCIKSGASGCSQPPQIEHGTINSSRSSQESYAHGTKLSYTCEGGFRISEENETTCYMGKWSSPPQCEGLPCKSPPEISHGVVAHMSDSYQYGEEVTYKCFEGFGIDGPAIAKCLGEKWSHPPSCIKTDCLSLPSFENAIPMGEKKDVYKAGEQVTYTCATYYKMDGASNVTCINSRWTGRPTCRDTSCVNPPTVQNAYIVSRQMSKYPSGERVRYQCRSPYEMFGDEEVMCLNGNWTEPPQCKDSTGKCGPPPPIDNGDITSFPLSVYAPASSVEYQCQNLYQLEGNKRITCRNGQWSEPPKCLHPCVISREIMENYNIALRWTAKQKLYSRTGESVEFVCKRGYRLSSRSHTLRTTCWDGKLEYPTCAKRGGSGHHHHHH

C3 convertase activity % of the control: 61 % of the control
C3 convertase activity IC50: 0.645 µg/mL
B6: pCEP4-1NT8-14CT20 (other)
chain: EDCNELPPRRNTEILTGSWSDQTYPEGTQAIYKCRPGYRSLGNVIMVCRKGEWVALNPLRKCQKRPCGHPGDTPFGTFTLTGGNVFEYGVKAVYTCNEGYQLLGEINYRECDTDGWTNDIPICEVVKCLPVTAPENGKIVSSAMEPDREYHFGQAVRFVCNSGYKIEGDEEMHCSDDGFWSKEKPKCVEISCKSPDVINGSPISQKIIYKENERFQYKCNMGYEYSERGDAVCTESGWRPLPSCEEKSCDNPYIPNGDYSPLRIKHRTGDEITYQCRNGFYPATRGNTAKCTSTGWIPAPRCTLKPCDYPDIKHGGLYHENMRRPYFPVAVGKYYSYYCDEHFETPSGSYWDHIHCTQDGWSPAVPCLRKCYFPYLENGYNQNHGRKFVQGKSIDVACHPGYALPKAQTTVTCMENGWSPTPRCIRVKTCSKSSIDIENGFISESQYTYALKEKAKYQCKLGYVTADGETSGSITCGKDGWSAQPTCIKSGASGCPPPPQIPNSHNMTTTLNYRDGEKVSVLCQENYLIQEGEEITCKDGRWQSIPLCVEKIPCSQPPQIEHGTINSSRSSQESYAHGTKLSYTCEGGFRISEENETTCYMGKWSSPPQCEGLPCKSPPEISHGVVAHMSDSYQYGEEVTYKCFEGFGIDGPAIAKCLGEKWSHPPSCIKTDCLSLPSFENAIPMGEKKDVYKAGEQVTYTCATYYKMDGASNVTCINSRWTGRPTCRDTSCVNPPTVQNAYIVSRQMSKYPSGERVRYQCRSPYEMFGDEEVMCLNGNWTEPPQCKDSTGKCGPPPPIDNGDITSFPLSVYAPASSVEYQCQNLYQLEGNKRITCRNGQWSEPPKCLHPCVISREIMENYNIALRWTAKQKLYSRTGESVEFVCKRGYRLSSRSHTLRTTCWDGKLEYPTCAKRGGSGHHHHHH
